Data published in US20240151714A1.

Tests used:
[1] = molecular target: hCG-first DNA conjugate (human) (UniProt P01215); test: cell-based or functional assay
[2] = molecular target: hCG-second DNA conjugate (human) (UniProt P01215); test: cell-based or functional assay
hCG-second DNA conjugate (human), sequence (P01215 other isoform, or with tags, fused parts or gaps limits assumed, chain 1 of 2, other chains not shown): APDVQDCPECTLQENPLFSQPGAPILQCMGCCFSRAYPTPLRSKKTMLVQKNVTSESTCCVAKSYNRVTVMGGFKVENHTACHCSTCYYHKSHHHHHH

hCG-first DNA conjugate (human), sequence (P01215 other isoform, or with tags, fused parts or gaps limits assumed, chain 1 of 2, other chains not shown): as above

Work on “hCG monoclonal antibody (MA5-14680; Thermo Fisher Scientific)” yielded a limit of detection (LOD) for the antibody, PPR-based immunoassay (absorbance at 405 nm) [1] of 9.83 pM and a limit of detection (LOD) for the antibody, PPR-based immunoassay (absorbance at 405 nm) [2] of 9.83 pM.
